Reference: US20210172946A1
Where “and” joins values, the source holds several entries; their conditions need not be identical. Identical values can stand only once.

Legend:
[1] = biological target: biotinylated antigen (biotinylated 16-branched citrullinated peptide); test: magnetic particle chemiluminescence immunoassay; antibody at 10 RU/ml; kit stored at 4 C for 7 days
[2] = biological target: biotinylated antigen (biotinylated 16-branched citrullinated peptide); test: magnetic particle chemiluminescence immunoassay; antibody at 80 RU/ml; kit stored at 4 C for 7 days
[3] = biological target: biotinylated antigen (biotinylated 16-branched citrullinated peptide); test: magnetic particle chemiluminescence immunoassay; antibody at 10 RU/ml; kit stored at 37 C for 7 days
[4] = biological target: biotinylated antigen (biotinylated 16-branched citrullinated peptide); test: magnetic particle chemiluminescence immunoassay; antibody at 200 RU/ml; kit stored at 4 C for 7 days
[5] = biological target: biotinylated antigen (biotinylated 16-branched citrullinated peptide); test: magnetic particle chemiluminescence immunoassay; antibody at 80 RU/ml; kit stored at 37 C for 7 days
[6] = biological target: biotinylated antigen (biotinylated 16-branched citrullinated peptide); test: magnetic particle chemiluminescence immunoassay; antibody at 200 RU/ml; kit stored at 37 C for 7 days
[7] = biological target: biotinylated antigen (biotinylated 16-branched citrullinated peptide); test: magnetic particle chemiluminescence immunoassay; antibody at 10 RU/ml; kit stored at 4 C for 7 days; mean of two
[8] = biological target: biotinylated antigen (biotinylated 16-branched citrullinated peptide); test: magnetic particle chemiluminescence immunoassay; antibody at 80 RU/ml; kit stored at 4 C for 7 days; mean of two
[9] = biological target: biotinylated antigen (biotinylated 16-branched citrullinated peptide); test: magnetic particle chemiluminescence immunoassay; antibody at 10 RU/ml; kit stored at 37 C for 7 days; mean of two
[10] = biological target: biotinylated antigen (biotinylated 16-branched citrullinated peptide); test: magnetic particle chemiluminescence immunoassay; antibody at 200 RU/ml; kit stored at 4 C for 7 days; mean of two
[11] = biological target: biotinylated antigen (biotinylated 16-branched citrullinated peptide); test: magnetic particle chemiluminescence immunoassay; antibody at 80 RU/ml; kit stored at 37 C for 7 days; mean of two
[12] = biological target: biotinylated antigen (biotinylated 16-branched citrullinated peptide); test: magnetic particle chemiluminescence immunoassay; antibody at 200 RU/ml; kit stored at 37 C for 7 days; mean of two
[13] = biological target: biotinylated antigen (biotinylated 16-branched citrullinated peptide); test: magnetic particle chemiluminescence immunoassay, antigen on streptavidin particles, AP anti-human IgG detection; antibody at 10 RU/ml; kit stored at 4 C for 7 days

RLU [1]: 132000 RLU
RLU [2]: 846000 RLU and 932000 RLU
RLU [3]: 124000 RLU
RLU [4]: 2.38e+06 RLU and 2.42e+06 RLU
RLU [5]: 886000 RLU and 917000 RLU
RLU [6]: 2.32e+06 RLU and 2.44e+06 RLU
RLU (AVER) [7]: 129000 RLU
RLU (AVER) [8]: 889000 RLU
RLU (AVER) [9]: 124000 RLU
RLU (AVER) [10]: 2.4e+06 RLU
RLU (AVER) [11]: 902000 RLU
RLU (AVER) [12]: 2.38e+06 RLU
RLU [13]: 125000 RLU
Substance: anti-citrullinated peptide antibody (quality control material / calibrator of the kit)
